Tests used:
[1] = target: human GPR49 (G-Protein-coupled Receptor 49) on cells (human) (UniProt O75473); test: cell-based or functional assay
[2] = target: Recombinant human GPR49-Fc ectodomain (human); test: direct ELISA on coated GPR49-Fc, about 0.1-250 nM, A450; table without unit, nM from the axis [nM] Ab; control whose curve in FIG. 9G is flat (see non_binding), so the fitted value lies outside the range tested and carries no meaning
Sequence of Recombinant human GPR49-Fc ectodomain (human) (chain, as listed by the source limits assumed, form in doubt): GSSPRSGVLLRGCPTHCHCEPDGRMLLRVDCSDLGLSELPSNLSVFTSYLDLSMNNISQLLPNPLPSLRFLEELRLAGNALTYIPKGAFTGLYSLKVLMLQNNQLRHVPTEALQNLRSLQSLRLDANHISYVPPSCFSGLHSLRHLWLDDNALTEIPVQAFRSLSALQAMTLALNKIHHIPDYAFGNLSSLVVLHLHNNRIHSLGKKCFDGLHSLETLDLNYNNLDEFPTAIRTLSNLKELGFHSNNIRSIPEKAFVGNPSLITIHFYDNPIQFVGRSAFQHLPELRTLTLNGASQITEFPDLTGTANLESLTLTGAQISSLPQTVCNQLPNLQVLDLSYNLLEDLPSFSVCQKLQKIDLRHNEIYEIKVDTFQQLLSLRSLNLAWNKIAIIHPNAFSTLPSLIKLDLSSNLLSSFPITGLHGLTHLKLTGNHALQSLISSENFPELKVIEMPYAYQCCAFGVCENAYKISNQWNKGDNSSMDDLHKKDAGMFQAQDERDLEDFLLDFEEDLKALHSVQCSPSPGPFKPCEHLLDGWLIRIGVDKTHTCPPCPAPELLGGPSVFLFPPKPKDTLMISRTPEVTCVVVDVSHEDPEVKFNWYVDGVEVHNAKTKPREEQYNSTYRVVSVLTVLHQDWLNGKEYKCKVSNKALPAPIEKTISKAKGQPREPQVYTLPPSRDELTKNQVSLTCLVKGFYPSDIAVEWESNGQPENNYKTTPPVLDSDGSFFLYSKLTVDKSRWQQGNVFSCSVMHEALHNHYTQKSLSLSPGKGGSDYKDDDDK

Sequence of human GPR49 (G-Protein-coupled Receptor 49) on cells (human) (O75473 22-907 limits assumed): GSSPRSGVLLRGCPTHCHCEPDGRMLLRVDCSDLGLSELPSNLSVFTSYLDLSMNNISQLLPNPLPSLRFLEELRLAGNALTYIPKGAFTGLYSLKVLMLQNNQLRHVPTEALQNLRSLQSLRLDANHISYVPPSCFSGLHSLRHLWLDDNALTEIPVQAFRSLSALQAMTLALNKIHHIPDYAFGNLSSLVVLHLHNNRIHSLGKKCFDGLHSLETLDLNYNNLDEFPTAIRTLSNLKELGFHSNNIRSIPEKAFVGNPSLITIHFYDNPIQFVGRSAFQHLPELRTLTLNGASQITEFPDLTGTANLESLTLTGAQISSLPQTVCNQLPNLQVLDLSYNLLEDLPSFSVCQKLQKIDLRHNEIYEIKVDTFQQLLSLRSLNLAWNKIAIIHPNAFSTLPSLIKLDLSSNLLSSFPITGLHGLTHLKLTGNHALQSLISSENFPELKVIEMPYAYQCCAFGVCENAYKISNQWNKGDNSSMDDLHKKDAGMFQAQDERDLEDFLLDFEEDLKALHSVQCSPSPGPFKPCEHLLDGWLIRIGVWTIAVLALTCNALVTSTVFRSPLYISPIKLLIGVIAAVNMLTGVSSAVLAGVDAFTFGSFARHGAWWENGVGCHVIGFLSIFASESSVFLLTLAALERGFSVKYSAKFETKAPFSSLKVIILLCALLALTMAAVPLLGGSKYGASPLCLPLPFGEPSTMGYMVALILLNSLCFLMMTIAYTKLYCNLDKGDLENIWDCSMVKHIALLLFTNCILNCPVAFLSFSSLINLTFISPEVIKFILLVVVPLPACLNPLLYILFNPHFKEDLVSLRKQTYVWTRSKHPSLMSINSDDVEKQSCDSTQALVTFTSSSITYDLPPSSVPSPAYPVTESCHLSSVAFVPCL

R-spondin-1 (ligand)
increase in proliferation, GPR49-3T3 clone 28 [1]: 4 fold

Ctrl (antibody)
EC50 [2]: 1.58 µM
